Measured values as given in the DeepSol protein solubility set.

Assay: soluble on expression in E. coli; label from the status in PepcDB or PDB records
In the case of “MGSDKIHHHHHHVTIPTQAKFTLRGRNPDVLSCIANLSNDEVFTPPEFAARMLDTLAQAWAEDHGGANLWADPTVRFLDPCTKSGVFLREITRRLVEGLAEQMPDLQKRVDHILTRQVFGIGITRLTALLARRSVYCSKYANGPHSIAKSFTTEAGNIWFERVEHTWKNGRCVYCGASQGTLDRGEELESHAYAFIHTDDIKTRITEIFGDDMQFDVIIGNPPYQLASDGGTRDIPIYQHFVEQAKKLDPKYLVMVIPSRWMASGLGLSEFRQTMLADRRIRELVDFPVATEVFPGVEVKGGVCYFLWNAAREGDCNVTTVRGEELRSCTLQF”, the “soluble on expression in E. coli” value is reported as “not soluble”.
With “MGSDKIHHHHHHVTSQAPVEVMTDIMTKFTSYIGKRLPTDIKEKLADLREAETNPMANVLFDSMAENQEAADKLNRPSCQDTGVIQYFITAGAKFPLLGELEEILRNATLGATKLGPLRHNAVEAFDEKNTGTNTGSRIPWLDWEIVPNDDGVIIDVYMAGGGCTLPGASTVLMPGQGYEGVVDFVFDVVTSRGINACPPLLIGVGVSTSAETAARLSKKAILRPVGSHHDNANAAKMETLLEDGLNELGIGPQGLTGNSSVMGVNIESSARHPSTIGVAVSTGCWAHRRGRIRFNADLSYEIVSHEGVVL” the “soluble on expression in E. coli” value was “not soluble”.
In the case of “MGSDKIHHHHHHVTVHGLPAPSADTALYQSIMEAGFTAFPERLANWRRFKAAQRGERLDYLPVKLDVEHVSRCNYRCTMCQVSDWPKMTRAADMTVGDFKSLLEQQIGVVEIKLQGMGEPLLAAESFFEMIRHARERHIWVRATTNGSLLHIKENYKGLVESDICEIQVSIDGARPETYEAIRRGGKFERVAENCRLLNAHAAQDGRERTRMWVVVQQGNLADLDLLPKAAAEMGFKRLTLSLDLTSWGQETWERNNEALDAHDLLPVEKAWALVEEGKRLGVEVTFWAIDSKYDWSDPAKLCPWPFERAYIASDMRVVPCCMIANPDVLDMGDARDLTGVWTGERMAEFRRAHLEGRIPEVCNSCYRDPPAP”, the “soluble on expression in E. coli” value is reported as “not soluble”.
For “MGSDKIHHHHHHVVAVNRAVFLDRDGVINKDHGYVHQVDDFEYIEGVFEACLALKKMGYKLVVVTNQSGIARGMYSEDQFHSLTEWMDWNFADKGVDLDGIYYCPHHAEKGMGEYKVDCDCRKPKPGMLNDAAKFLKVDLSQSVMVGDKADDMQAAKAAGVPTRILVRSGKVIADSSDATIVLDSIADVPDYLKA”, the “soluble on expression in E. coli” value was “not soluble”.
With “MGSDKIHHHHHHYEKIYDVNHVCYYTLTSVELQKFVKTAEIITPLNADNKTTITKDTILVGNPEENPLTKKYIGFFKIKINKTFPGKNKGIIEKQIINGHTVILLAGSDIQGTYASIITFANLNDIPENPIICETSNKVNIYSTSLNSEYFRDFIEKNILTPKEIEKVKSLSYKLKGKDKKATIENIAKWVANNIKYDYDKCKKIESGKFSWDEYNTPSETVKTKKGVCLDYATLTSALLLNDNIIPYMLDVALYNTSSLKISSYHASVAVKIDNTYFVIDQQPYLIPINEYTAQTFEDNLRIASIVMFRVVKERDGIKLIKEKEVPGIAIYGDLINLLEMRFNN” the “soluble on expression in E. coli” value was “not soluble”.
With “MGSEEYFKKGAIKVEIKSGALLISPSEFKERYLPTLQDMPVLAFVRNIEAPKSWYSYLISNIEDQKSSIFPTNLPRILEISRRYFSSVKNGIVVIDALEYLTIYNGFEAIAKFLATLRDFAILDNGTVIIITEKKAWKDREWALLTSLLGKLEHHHHHH” the “soluble on expression in E. coli” value was “soluble”.
In the case of “MGSHHHHHHDITSLYKKAGSAAAVLEENLYFGGSFTMDMAADIASDHFISRRVDIGRITLNVREKGSGPLMLFFHGITSNSAVFEPLMIRLSDRFTTIAVDQRGHGLSDKPETGYEANDYADDIAGLIRTLARGHAILVGHSLGARNSVTAAAKYPDLVRSVVAIDFTPYIETEALDALEARVNAGSQLFEDIKAVEAYLAGRYPNIPADAIRIRAESGYQPVDGGLRPLASSAAMAQTARGLRSDLVPAYRDVTKPVLIVRGESSKLVSAAALAKTSRLRPDLPVVVVPGADHYVNEVSPEITLKAITNFIDA”, the “soluble on expression in E. coli” value is reported as “soluble”.
With “MGSQAAHMMSMDFEDFPVESAHRILTPRPTVMVTTVDEEGNINAAPFSFTMPVSIDPPVVAFASAPDHHTARNIESTHEFVINITPADIIERMWVTARDIPAGENELEAAGLAWTSSRRVKPPRIVEAPGHLECELLRMFEVGDHNLITGSVVSASVRSGAVKEGLLDVESVKPVLHVGGNKFVVGD” the “soluble on expression in E. coli” value was “not soluble”.
With “MGSRRYDSRTTIFSPEGRLYQVEYALESISHAGTAIGIMASDGIVLAAERKVTSTLLEQDTSTEKLYKLNDKIAVAVAGLTADAEILINTARIHAQNYLKTYNEDIPVEILVRRLSDIKQGYTQHGGLRPFGVSFIYAGYDDRYGYQLYTSNPSGNYTGWKAISVGANTSAAQTLLQMDYKDDMKVDDAIELALKTLSKTTDSSALTYDRLEFATIRKGANDGEVYQKIFKPQEIKDILVKTGITKKDEDEEADEDMK” the “soluble on expression in E. coli” value was “soluble”.
For “MGSSGGGGSGGGGVTADIGTGLADALTAPLDHKDKGLKSLTLEDSISQNGTLTLSAQGAEKTYGNGDSLNTGKLKNDKVSRFDFIRQIEVDGQLITLESGEFQVYKQSHSALTALQTEQEQDPEHSEKMVAKRRFRIGDIAGEHTSFDKLPKDVMATYRGTAFGSDDAGGKLTYTIDFAAKQGHGKIEHLKSPELNVDLAVAYIKPDEKHHAVISGSVLYNQDEKGSYSLGIFGEKAQEVAGSAEVETANGIHHIGLAAKQ”, the “soluble on expression in E. coli” value was “soluble”.
For “MGSSGMGVDANGKPIKRQPTTNNNNKKAGNNSNNQKKGNNQNNKNNKNQNGGNRNQNRQHHQPPMMQMVPPFGPMGPGGPGGPGFMGPPNGNMNFFNGQNRRNGSGKNNGNRNGAPPSGYNGPSANNVGQGAIGNNMNGAQPFAGPEPSMEVPGFGKNSNIHELFGKMIWRKMEQINDAALVDQLQNRIMNLIHDALASQNDKQQQQQQQQHQQGFNQQRGMPFGGPGNQNGPFGNNAGFQRF”, the “soluble on expression in E. coli” value was “not soluble”.
In the case of “MGSSHHHHHHDYDIPTTENLYFQGHMKIGIMSDTHDHLPNIRKAIEIFNDENVETVIHCGDFVSLFVIKEFENLNANIIATYGNNDGERCKLKEWLKDINEENIIDDFISVEIDDLKFFITHGHHQSVLEMAIKSGLYDVVIYGHTHERVFEEVDDVLVINPGECCGYLTGIPTIGILDTEKKEYREIVL”, the “soluble on expression in E. coli” value is reported as “soluble”.
In the case of “MGSSHHHHHHGGTGENLYFQGGSGHPASLAAHAFGDASTRSPTHTLPSRCHLFLSLSLSTAAVRRSRASPPLAPTRRTHECLSASHTRTCRQSASFSPLEHPFSFSVAILSSTMPREIKTLKEFLAICSRKDARCVKVKHNPSATKFKVRCSRYLYTLVVNDKKKADKIERSIHPSVKKIAVTARSHAKTNAGSKQ”, the “soluble on expression in E. coli” value is reported as “not soluble”.
In the case of “MGSSHHHHHHGGTGENLYFQGGSGKIFSTLGNPGTLAATKPKKGEVVLASPEATVSKYKEAIKQHKKALKELHACTERFTHALAAVAASLQLLTSDTHIPVMVQSSGALASGIEEVQDGVLLQDLMEELDYSLSTRFKQIAEDQRELKESRERKSKAERTLMLLRSQCDKLQLKKDVDAKVQALYLAKTQKRDEHEVECTRLKAEFEDTFQDFTKRFGILVYEDMKGLTVHLHRVLSALSYQVRKCKDNIMAHPITPKPIAEMS”, the “soluble on expression in E. coli” value is reported as “not soluble”.
For “MGSSHHHHHHGGTGENLYFQGGSGSSVTPTIPFKAWLKLHAKAICQALPLSLLIVVEARDLYYRATWDVAPVPPSKFEVGDVIAVCNRWYTLPTWSHVVYSWLSKVLLKSCWDDVGVISSVKNGTPHILYVDFHGVHEQPLATFLETRCPRGAAVRKLRRDEGVPSPSPAIADLFRKEVEMISVEPWFLFSASMRGGNEHKYYEFCVRMHEQRCKIRSMLQRRQSRPAIEAQQTSLKEMEVMRQHLAKFVEPVTHFHLYNGSLVASFFATYGLLDREMPSPSRYVPQDFAHTIPFLGATTLDEPIVFFRN”, the “soluble on expression in E. coli” value was “not soluble”.
For “MGSSHHHHHHGKTIFVIVPTNEEQVAFLEALAKQDELNFDWQNPPTEPGQPVVILIPSDMVEWFLEMLKAKGIPFTVYVEEGGSENLYFQGGGGGGAATVTDLKNAIKNELYRIDIGMTDFYSSLSVSPTVQQQYCTAAITSRAAGLSLTMESLSSPYGVLATEYGFLIYKDTFVFGPSIKLIGASAWPNGTLTTDIQSGRHILVPYLTNTVVFVTGVIENEDGRQNILPMMRLMMVDSYLCAHMHMNVANLYRKTFRTAFAELA”, the “soluble on expression in E. coli” value was “not soluble”.
For “MGSSHHHHHHGKTIFVIVPTNEEQVAFLEALAKQDELNFDWQNPPTEPGQPVVILIPSDMVEWFLEMLKAKGIPFTVYVEEGGSENLYFQGGGGGGCCSLLFFVYIAFSLIHTLHHLFLFSECNISADERMDVPSEDYDVSIMIKAIHEVQDVLTSRQFATFSEVDTEIGKTLKRYEAFGDGFERFHVNLTKDALQSNDLQKSLKDMDKRCQDRLRDCASSQKDQINDILPFIRNTSSILVHGSGNLLALTIACSIQEHEGVRFYICEGRPARKGYPHGSGEQLLEKVLATPEGMRLKDKLHKYCTIVPDSGVSSVMNSVDFVIMGAYCVTEHGGLVHSTGSLQIAIVAAFRNVPCYVLCETFKFAHIFPLSTDDLKQPENGAGEVVPLVEFVPPSMITLIFSEQGIMPPSAVADEMFRFHTAPSAPGKRR”, the “soluble on expression in E. coli” value was “not soluble”.
For “MGSSHHHHHHGKTIFVIVPTNEEQVAFLEALAKQDELNFDWQNPPTEPGQPVVILIPSDMVEWFLEMLKAKGIPFTVYVEEGGSENLYFQGGGGGGMDLDAFLSKNNKKSSKKVAKKSADEAALGGFGLETVPRVSTAAAKPITVANTGGSDASAAAGTASPLPAPEKTVAAPVVAVNLNFAGTTRSAKTWDAVKASQDSKRQEEVQAAAARKAKEEAEAAERKAAAGGDDDEVQLPESSPKETKVAKFVARGHRNATGAIGGGEGGAAAAASGRFAPHTQGLSLENLPTLEETFGNARKPSQSTASQSQSQQQPMSLPSQEQNGESAPAATPQESSSTPTSATAVAGSNKYVPPSKSSSTMESSTTLPSSPMPTRGSAGGSSAAAYRPPSGSSGVYKPPSMGAYRPPNASAGEAYKPPAPSAPSSGAGAYKPPTPGGASAGAYRPPASTGEAYKPPSSGGAGVYKPPSAGNSNAGAFKPSTAAGFSADTYKPPVAGSGSSAGAYKPPSAGGSAGVYKPPSKREA”, the “soluble on expression in E. coli” value was “soluble”.
In the case of “MGSSHHHHHHHSSGRENLYFQGHMEGVRWAFSCGTWLPSRAEWLLAVRSIQPEEKERIGQFVFARDAKAAMAGRLMIRKLVAEKLNIPWNHIRLQRTAKGKPVLAKDSSNPYPNFNFNISHQGDYAVLAAEPELQVGIDIMKTSFPGRGSIPEFFHIMKRKFTNKEWETIRSFKDEWTQLDMFYRNWALKESFIKAIGVGLGFELQRLEFDLSPLNLDIGQVYKETRLFLDGEEEKEWAFEESKIDEHHFVAVALRKPDGSRHQDVPSQDDSKPTQRQFTILNFNDLMSSAVPMTPEDPSFWDCFCFTEEIPIRNGTKSLESG”, the “soluble on expression in E. coli” value is reported as “soluble”.
With “MGSSHHHHHHSQDPDPMQSFADAKEFFQYSAGQWQSRRVTHHLPFRRAESGGSNIQVETLEKDDPRIIEICQMHDMDASLSVGGSYVTWAGTMQWDKDDENHEGSTVFALIPDADNPRQGKLLRERGYAEIVPVAGEYHLDHEDGLVLTTEYETMTIYERFWFANPDLRLRTSTVKRFGGFNTTTFCMEERIQTSPVTATAAAETNPLYAISGW” the “soluble on expression in E. coli” value was “soluble”.
In the case of “MGSSHHHHHHSQDPLVPRGSGSDYIIKEKTVLLQKKDSEGFGFVLRGAKAQTPIEEFTPTPAFPALQYLESVDEGGVAWRAGLRMGDFLIEVNGQNVVKVGHRQVVNMIRQGGNTLMVKVVMVTRHPDMDEA”, the “soluble on expression in E. coli” value is reported as “soluble”.
For “MGSSHHHHHHSQDPTVPAQLQFSAKTLDGHDFHGESLLGKPAVLWFWAPWCPTCQGEAPVVGQVAASHPEVTFVGVAGLDQVPAMQEFVNKYPVKTFTQLADTDGSVWANFGVTQQPAYAFVDPHGNVDVVRGRMSQDELTRRVTALTSR”, the “soluble on expression in E. coli” value was “soluble”.
